Source: paper PMC5902190 (Biochemistry, 2017)
Read-outs that look alike come from different tables or passages of the source.

Tests used:
Assay in all cases: ATP/PPi exchange rate against MLP concentration
[1] = target: EntF, enterobactin nonribosomal peptide synthetase (E. coli) (UniProt P11454)
[2] = target: T1, EntF, enterobactin nonribosomal peptide synthetase (E. coli, UniProt P11454 1-1293)
[3] = target: T1, EntF, enterobactin nonribosomal peptide …; remark: listed apart in the source

T1 sequence (P11454 whole entry): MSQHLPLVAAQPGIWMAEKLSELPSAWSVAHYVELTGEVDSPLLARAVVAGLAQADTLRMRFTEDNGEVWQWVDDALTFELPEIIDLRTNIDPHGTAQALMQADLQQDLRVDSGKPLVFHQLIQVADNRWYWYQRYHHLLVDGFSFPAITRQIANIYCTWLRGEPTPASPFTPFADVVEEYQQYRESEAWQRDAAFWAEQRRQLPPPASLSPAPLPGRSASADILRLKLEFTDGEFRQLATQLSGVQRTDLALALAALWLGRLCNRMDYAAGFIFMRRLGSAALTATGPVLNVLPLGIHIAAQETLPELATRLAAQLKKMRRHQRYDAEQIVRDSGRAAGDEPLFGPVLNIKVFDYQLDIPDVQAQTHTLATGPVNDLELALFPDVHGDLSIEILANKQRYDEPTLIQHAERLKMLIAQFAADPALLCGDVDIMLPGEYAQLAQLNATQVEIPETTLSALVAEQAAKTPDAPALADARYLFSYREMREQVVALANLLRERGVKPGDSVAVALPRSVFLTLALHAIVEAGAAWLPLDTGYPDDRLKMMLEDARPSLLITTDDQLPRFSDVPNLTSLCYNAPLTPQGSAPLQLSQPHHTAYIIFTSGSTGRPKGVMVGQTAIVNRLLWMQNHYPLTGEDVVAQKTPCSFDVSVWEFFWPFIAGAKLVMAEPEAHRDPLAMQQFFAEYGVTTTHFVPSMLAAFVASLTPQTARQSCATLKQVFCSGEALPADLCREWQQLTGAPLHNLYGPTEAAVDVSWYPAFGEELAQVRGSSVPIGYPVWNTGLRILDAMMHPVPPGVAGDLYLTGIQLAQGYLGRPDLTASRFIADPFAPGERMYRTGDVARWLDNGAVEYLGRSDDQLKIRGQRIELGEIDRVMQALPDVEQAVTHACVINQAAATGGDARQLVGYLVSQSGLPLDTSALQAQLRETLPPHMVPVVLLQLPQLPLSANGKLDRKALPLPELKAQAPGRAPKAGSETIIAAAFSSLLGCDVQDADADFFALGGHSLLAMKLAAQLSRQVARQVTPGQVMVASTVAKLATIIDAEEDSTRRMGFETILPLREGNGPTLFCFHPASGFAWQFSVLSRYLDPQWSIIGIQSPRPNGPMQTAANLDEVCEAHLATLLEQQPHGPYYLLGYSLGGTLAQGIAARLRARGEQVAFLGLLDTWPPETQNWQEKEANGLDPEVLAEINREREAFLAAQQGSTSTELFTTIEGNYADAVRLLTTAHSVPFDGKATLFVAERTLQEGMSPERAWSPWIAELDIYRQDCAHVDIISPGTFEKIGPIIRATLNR
EntF, enterobactin nonribosomal peptide synthetase (E. coli), sequence (P11454 whole entry): as above

## VioN, MbtH-like protein of viomycin biosynthesis (purified, tag cleaved) (natural protein)
[1]
  Kd: 200 nM

B1: MbtH, MbtH-like protein of mycobactin biosynthesis (purified, tag cleaved) (natural protein)
chain: MSTNPFDDDNGAFFVLVNDEDQHSLWPVFADIPAGWRVVHGEASRAACLDYVEKNWTDLRPKSLRDAMVED
[2]
  Kd: 54.6 ± 8 nM

B2: CmnN, MbtH-like protein of capreomycin biosynthesis (purified, tag cleaved) (natural protein, Saccharothrix mutabilis subsp. capreolus, UniProt A6YEI5 1-62, looked up)
chain: MDTYLVVVNHEEQYSVWPADRPLPAGWRAEGTSGDKEQCLAHIETVWTDMRPLSVRRRAEAV
[3]
  Kd: 150 ± 7 nM

B3: MXAN_3118, orphan MbtH-like protein (purified, tag cleaved) (natural protein, Myxococcus xanthus DK1622, UniProt Q1D7Q2 1-71, looked up)
chain: MTDEREDTTVYKVVVNHEEQYSIWPADRENALGWKDAGKQGLKAECLEYIKEVWTDMRPLSLRKKMEELKS
[3]
  Kd: 166 ± 29 nM

B4: BSU31959, MbtH-like protein of corynebactin biosynthesis (purified, tag cleaved) (natural protein, Bacillus subtilis strain 168, UniProt C0H3Q6 1-69, looked up)
chain: MANPFENADGTYLVLVNEEGQYSLWPGFIDVPSGWTVVHEQKGREACLDYIQSHWSDMRPNSLKTVENV
[3]
  Kd: 310 ± 69 nM
